From article PMC5796892, “Leishmania donovani Inhibitor of Serine Peptidases 2 Mediated Inhibition of Lectin Pathway and Upregulation of C5aR Signaling Promote Parasite Survival inside Host” (Frontiers in Immunology, 2018)

How the values were obtained:
Conditions in all cases: both partners purified
[1] = target: T1, C1 complex (C1qr2s2) (human, UniProt P02745 23-245; P02746 28-253; P02747 29-245); assay: ELISA; C1 complex at 6.25 µg/ml bound to human IgM-coated plate (37°C, 2 h); rLdISP1/rLdISP2 0-50 µM added, 37°C, 2 h; bound ISP detected with anti-ISP1 or anti-ISP2 antibody; Kd taken as the free ligand at half saturation
T1 construct: Complement C1q, subunit A; Complement C1q, subunit B; Complement C1q, subunit C; Complement C1r, serine protease of the C1 complex; the PDB entry was used only for docking and holds a fragment; Complement C1s, serine protease of the C1 complex; Held on plates coated with human IgM; also called C1 component; source: bought: Merk-Millipore (purified C1 complex); copies: + + + 2 + 2

[2] = target: T1, C1 complex (C1qr2s2); assay: ELISA; C1 complex at 50 µg/ml bound to human IgM-coated plate (37°C, 2 h); rLdISP1/rLdISP2 0-50 µM added, 37°C, 2 h; bound ISP detected with anti-ISP1 or anti-ISP2 antibody; Kd taken as the free ligand at half saturation
[3] = target: T1, C1 complex (C1qr2s2); assay: ELISA; C1 complex at 100 µg/ml bound to human IgM-coated plate (37°C, 2 h); rLdISP1/rLdISP2 0-50 µM added, 37°C, 2 h; bound ISP detected with anti-ISP1 or anti-ISP2 antibody; Kd taken as the free ligand at half saturation
[4] = target: T1, C1 complex (C1qr2s2); assay: ELISA; C1 complex at 12.5 µg/ml bound to human IgM-coated plate (37°C, 2 h); rLdISP1/rLdISP2 0-50 µM added, 37°C, 2 h; bound ISP detected with anti-ISP1 or anti-ISP2 antibody; Kd taken as the free ligand at half saturation
[5] = target: T1, C1 complex (C1qr2s2); assay: ELISA; C1 complex at 25 µg/ml bound to human IgM-coated plate (37°C, 2 h); rLdISP1/rLdISP2 0-50 µM added, 37°C, 2 h; bound ISP detected with anti-ISP1 or anti-ISP2 antibody; Kd taken as the free ligand at half saturation

B1: recombinant Leishmania donovani inhibitor of serine peptidases 1 (natural protein)
chain: MSYCKIEAPYPTAEAGEKRIIFALDPKGDEAEQEQYMLQLIPGRVLEMSRNDAANHQTLGGSIEQHTVEGWGAKFFHVKLAKQAASTLMHVHDEDHSEKVRKFVAMPNPPLFPYRSRCPVVVYLPNDAELRYGIWCGGQQMQAVTE
[1]
  Ka: 260000 M⁻¹
  Kd: 3800 nM
[2]
  Ka: 450000 M⁻¹
  Kd: 2200 nM
[3]
  Ka: 625000 M⁻¹
  Kd: 1600 nM
[4]
  Ka: 280000 M⁻¹
  Kd: 3500 nM
[5]
  Ka: 330000 M⁻¹
  Kd: 2800 nM
